From US7423021 come the findings set out here.

Test [1] addresses human thrombin (human) (UniProt P00734). As to the kind of experiment: cell-based or functional assay.
Test [2] has the same target. As to the kind of experiment: competitive inhibition of human thrombin hydrolysis of the fluorogenic substrate Tos-Gly-Pro-Arg-AMC, Hanes analysis.

In the test with human thrombin (human) [1], “N-acetyl-D-Gln-D-His-L-Cha-D-Pro-D-Tyr-L-Arg amide (peptide)” came in with an inhibition of the amidase activity of thrombin at 1 µM peptide of 59%.

“N-acetyl-D-Glu-L-Cha-D-Pro-D-Tyr-L-Arg amide (peptide)” came in with an inhibition of the amidase activity of thrombin at 1 µM peptide in the test with human thrombin (human) [1] of 58%.

On to “N-acetyl-D-Lys-L-Nle-L-Cha-D-Pro-D-Tyr-L-Arg amide (peptide)”, for which, in the test with human thrombin (human) [1], the inhibition of the amidase activity of thrombin at 1 µM peptide was 48%.

The substance “N-acetyl-D-Phe-D-Cha-L-Aze-D-Tyr-L-Har amide (peptide)” showed an inhibition of the amidase activity of thrombin at 250 nM peptide with human thrombin (human) [1] of 77%.

Turning to “N-acetyl-D-Tyr-L-Cha-D-Pro-D-Tyr-L-Arg amide (peptide)”, the inhibition of the amidase activity of thrombin at 1 µM peptide with human thrombin (human) [1] amounted to 47%.

Take “N-acetyl-D-Val-D-His-L-Cha-D-Pro-D-Tyr-L-Arg amide (peptide)”: the inhibition of the amidase activity of thrombin at 1 µM peptide with human thrombin (human) [1] was determined as 51%.

The substance “N-acetyl-D-Val-L-Cha-D-Pro-D-Tyr-L-Arg amide (peptide)” returned an inhibition of the amidase activity of thrombin at 1 µM peptide with human thrombin (human) [1] of 45%.

For the substance “N-acetyl-L-Ala-D-Cha-L-Aze-D-Tyr-L-Arg amide (peptide)”, in the test with human thrombin (human) [1], the inhibition of the amidase activity of thrombin at 1 µM peptide was found to be 63%.

“N-acetyl-L-Ala-D-Cha-L-Aze-D-Tyr-L-Har amide (peptide)”: the inhibition of the amidase activity of thrombin at 250 nM peptide in the test with human thrombin (human) [1] came to 77%.

Substance “N-acetyl-L-Ala-D-Cha-L-Pro-D-Tyr-L-Har amide (peptide)” registered an inhibition of the amidase activity of thrombin at 1 µM peptide in the test with human thrombin (human) [1] of 56%.

“N-acetyl-L-Ala-L-Cha-D-Pro-D-Tyr-L-Arg amide (peptide)” gave an inhibition of the amidase activity of thrombin at 1 µM peptide with human thrombin (human) [1] of 44%.

“N-acetyl-L-Arg-L-Cha-D-Pro-D-Tyr-L-Arg amide (peptide)” came in with an inhibition of the amidase activity of thrombin at 1 µM peptide with human thrombin (human) [1] of 47%.

As for “N-acetyl-L-Cha-D-Cha-L-Aze-D-Tyr-L-Har amide (peptide)”, in the test with human thrombin (human) [1], the inhibition of the amidase activity of thrombin at 250 nM peptide is 90%.

Turning to “N-acetyl-L-Dcp-D-Cha-L-Aze-D-Tyr-L-Har amide (peptide)”, the inhibition of the amidase activity of thrombin at 250 nM peptide with human thrombin (human) [1] worked out at 75%.

With “N-acetyl-L-Ile-L-Arg-L-Cha-D-Pro-D-Tyr-L-Arg amide (peptide)”, the inhibition of the amidase activity of thrombin at 1 µM peptide in the test with human thrombin (human) [1] came to 61%.

In the case of “N-acetyl-L-Iq3-D-Cha-L-Aze-D-Tyr-L-Har amide (peptide)”, the inhibition of the amidase activity of thrombin at 250 nM peptide with human thrombin (human) [1] was determined as 72%.

On to “N-acetyl-L-Nhm-D-Cha-L-Aze-D-Tyr-L-Har amide (peptide)”, for which, in the test with human thrombin (human) [1], the inhibition of the amidase activity of thrombin at 250 nM peptide turned out to be 80%.

With “N-acetyl-L-Nle-D-Cha-L-Aze-D-Tyr-L-Har amide (peptide)”, the inhibition of the amidase activity of thrombin at 250 nM peptide in the test with human thrombin (human) [1] was determined as 89%.

In turn, “N-acetyl-L-Phg-D-Cha-L-Aze-D-Tyr-L-Har amide (peptide)” came in with an inhibition of the amidase activity of thrombin at 250 nM peptide with human thrombin (human) [1] of 95%.

The substance “N-acetyl-L-Pnp-D-Cha-L-Aze-D-Tyr-L-Har amide (peptide)” showed an inhibition of the amidase activity of thrombin at 250 nM peptide in the test with human thrombin (human) [1] of 72%.

In turn, “N-acetyl-L-Ppd-D-Cha-L-Aze-D-Tyr-L-Har amide (peptide)” returned an inhibition of the amidase activity of thrombin at 250 nM peptide with human thrombin (human) [1] of 76%.

As for “N-acetyl-L-Ser-L-Ala-L-Cha-D-Pro-D-Tyr-L-Arg amide (peptide)”, in the test with human thrombin (human) [1], the inhibition of the amidase activity of thrombin at 1 µM peptide was 47%.

Turning to “N-acetyl-L-Ser-L-Arg-L-Cha-D-Pro-D-Tyr-L-Arg amide (peptide)”, the inhibition of the amidase activity of thrombin at 1 µM peptide with human thrombin (human) [1] turned out to be 51%.

The substance “N-acetyl-L-Ser-L-Ser-L-Cha-D-Pro-D-Tyr-L-Arg amide (peptide)” registered an inhibition of the amidase activity of thrombin at 1 µM peptide with human thrombin (human) [1] of 40%.

In the case of “N-acetyl-L-Tea-D-Cha-L-Aze-D-Tyr-L-Har amide (peptide)”, in the test with human thrombin (human) [1], the inhibition of the amidase activity of thrombin at 250 nM peptide turned out to be 74%.

In the test with human thrombin (human) [1], “N-acetyl-L-Trp-D-Cha-L-Aze-D-Tyr-L-Har amide (peptide)” displayed an inhibition of the amidase activity of thrombin at 250 nM peptide of 76%.

“N-acetyl-L-Trp-L-Cha-D-Pro-D-Tyr-L-Arg amide (peptide)” yielded an inhibition of the amidase activity of thrombin at 1 µM peptide in the test with human thrombin (human) [1] of 63%.

The substance “N-acetyl-L-Tyr-D-Pro-L-Cha-D-Pro-D-Tyr-L-Arg amide (peptide)” gave an inhibition of the amidase activity of thrombin at 1 µM peptide with human thrombin (human) [1] of 44%.

As to “N-acetyl-L-Tyr-L-Cit-L-Cha-D-Pro-D-Tyr-L-Arg amide (peptide)”, in the test with human thrombin (human) [1], the inhibition of the amidase activity of thrombin at 1 µM peptide is 55%.

The Ki is a measure of affinity in units of concentration, obtained from inhibition or displacement. Read a high Ki as a looser hold on the target. For “Tranexamic acid-D-Cha-L-Aze-D-Try-L-Har amide (peptide)”, the Ki with human thrombin (human) [2] was found to be 7 nM.

Turning to “Trans-4-(guanidinomethyl)cyclohexanecarboxylic acid-D-Cha-L-Aze-D-Try-L-Har amide (peptide)”, the Ki in the test with human thrombin (human) [2] is 3 nM. Against the preceding substance, the Ki is about 2.3-fold lower.
